Experimental data as given in patent publication US20240301059A1 (PIONYR IMMUNOTHERAPEUTICS, published 2024).

T1: mouse TREM2 on Expi 293 cells (mouse, UniProt Q99NH8 19-227)
T1 construct: also called Expi-mTREM2; mTREM2
T1 sequence: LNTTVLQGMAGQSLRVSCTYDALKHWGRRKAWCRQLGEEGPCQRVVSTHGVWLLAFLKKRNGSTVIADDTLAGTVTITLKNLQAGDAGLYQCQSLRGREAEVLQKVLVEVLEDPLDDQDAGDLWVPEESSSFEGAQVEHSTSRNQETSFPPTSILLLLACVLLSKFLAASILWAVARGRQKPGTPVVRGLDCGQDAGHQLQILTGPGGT

T2: TREM2 human IgG1 Fc fusion protein (human, UniProt Q9NZC2 19-174, limits assumed)
T2 construct: In-house, SEC purified to >95% purity; also called human TREM2-Fc; not shown: human IgG1 Fc
T2 sequence: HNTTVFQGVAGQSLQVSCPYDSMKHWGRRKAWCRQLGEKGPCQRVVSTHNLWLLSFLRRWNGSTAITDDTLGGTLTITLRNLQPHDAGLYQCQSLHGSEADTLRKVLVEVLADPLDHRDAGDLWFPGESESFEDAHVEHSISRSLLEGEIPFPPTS

T3: human TREM2 on Expi 293 cells (human, UniProt Q9NZC2 19-230)
T3 construct: also called Expi-hTREM2; hTREM2
T3 sequence: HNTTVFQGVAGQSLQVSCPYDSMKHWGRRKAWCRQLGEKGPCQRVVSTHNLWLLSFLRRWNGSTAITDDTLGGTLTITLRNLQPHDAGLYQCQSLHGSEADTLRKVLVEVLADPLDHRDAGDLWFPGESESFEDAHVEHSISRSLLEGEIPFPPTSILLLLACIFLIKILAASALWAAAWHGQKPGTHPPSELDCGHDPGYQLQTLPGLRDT

T4: human TREM2 His (Sino Biological) (human, UniProt Q9NZC2 19-174)
T4 construct: Bought reagent; the soluble reagent is probably only the extracellular part; not shown: His tag
T4 sequence: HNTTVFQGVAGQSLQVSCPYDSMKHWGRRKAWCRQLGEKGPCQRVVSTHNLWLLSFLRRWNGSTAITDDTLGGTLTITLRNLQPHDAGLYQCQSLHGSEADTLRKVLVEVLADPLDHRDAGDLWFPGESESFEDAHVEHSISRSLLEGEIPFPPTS


How the values were obtained:
[1] = biological target: T1, mouse TREM2 on Expi 293 cells; assay: flow cytometry on Expi 293 cells over-expressing mouse TREM2; Alexa Fluor 647 anti-Fc secondary
Method: (§1) 100,000 to 500,000 Expi 293 parental cells or Expi 293 cells over-expressing human or mouse TREM2 were plated in 96 well plates and dead cells were stained with Zombie Near Infrared (Biolegend). Titrations of indicated unconjugated antibodies were incubated with these cells within a range of 0 ug/ml to 10 ug/ml in a 1:3 dilution range across 8-10 points. Dependent on their isotype (hIgG1 or mIgG2a), these primary unconjugated antibodies were detected with Alexa Fluor 647 conjugated anti-human Fc or anti-mouse Fc secondary antibodies (Jackson Immunoresearch). Alexa Fluor 647 signal was measured by flow cytometry (BD Fortessa X-14, BD Biosciences). EC50 values were calculated by curve fitting signal generated from antibodies binding to over-expressing cells over background fluorescence generated from HEK293 parental cells in Graphpad Prism (Graphpad Software).

[2] = biological target: T2, TREM2 human IgG1 Fc fusion protein; assay: SPR, Biacore T200; TREM2-Fc amine-coupled to CM5 chip, antibody injected; 1:1 Langmuir fit
Method: (§2) Binding kinetics were determined by surface plasmon resonance using a Biacore T200 (GE Healthcare, UK) with human TREM2 His (Sino Biological, Beijing, P.R.China) or […] captured on Series S CM5 chips through anti-His capture or TREM2 human IgG1 Fc fusion protein (in-house SEC purified to >95% purity) directly immobilized to chips by amine coupling. Serial dilutions of indicated antibodies were injected at 30 ul/minute for 2 minutes. PBS or system buffer was then injected at 30 ul/minute for 400 seconds to observe dissociation. Binding responses were corrected by subtraction of responses on a blank flow cell. For kinetic analysis, a 1:1 Langmuir model of global fittings of kₒₙ and koff values, was used. The Kd values were determined from the ratios of kₒₙ and koff.

[3] = biological target: T3, human TREM2 on Expi 293 cells; assay: flow cytometry on Expi 293 cells over-expressing human TREM2; Alexa Fluor 647 anti-Fc secondary
Method: as §1

[4] = biological target: T4, human TREM2 His (Sino Biological); assay: SPR, Biacore T200; TREM2-His captured on CM5 chip by anti-His, antibody injected; 1:1 Langmuir fit
Method: as §2

Row | EC50 [1] | Kd [2] | koff [2] | kon [2] | EC50 [3] | Kd [4] | koff [4] | kon [4] | Binder
1 | 0.5 nM |  |  |  |  |  |  |  | PI37012 (antibody, human IgG1, kappa, V domains shown, Humanized anti-TREM2 antibody, human IgG1, produced in HEK293; also called 37012 antibody; PI37012 anti-TREM2 mAb) VH: EVQLLESGGGLVQPGGSLRLSCAASGFTFSNYYMAWVRQAPGKGLEWVSSLTNSGGSTYYADSVKGRFTISRDNSKNTLYLQMNSLRAEDTAVYYCTREWAGSGYFDYWGQGTLVTVSS VL: DIQMTQSPSSLSASVGDRVTITCKASQNVGNNLAWYQQKPGKAPKLLIYYTSNRFTGVPSRFSGSGSGTDFTLTISSLQPEDFATYYCQRIYNSPWTFGQGTKLEIKR
2 | 1.2 nM | 1.72 nM | 0.000888 s⁻¹ | 517000 M⁻¹ s⁻¹ | 1.4 nM | 4.82 nM | 0.00549 s⁻¹ | 1.14e+06 M⁻¹ s⁻¹ | PI37013 (antibody, human IgG1, kappa, V domains shown, Humanized anti-TREM2 antibody, human IgG1) VH: EVQLLESGGGLVQPGGSLRLSCAASGFTFSNYYMAWVRQAPGKGLEWVSSLTNSGGSTYYADSVKGRFTISRDNSKNTLYLQMNSLRAEDTAVYYCTREWAGSGYFDYWGQGTLVTVSS VL: DIQMTQSPSSLSASVGDRVTMTCKASQNVGNNLAWYQQKPGKAPKLLLYYTSNRFTGVPSRFSGSGSGTDFTLTISSVQPEDFATYYCQRIYNSPWTFGQGTKLELKR
3 | 3.6 nM | 18 nM | 0.00614 s⁻¹ | 340000 M⁻¹ s⁻¹ | 23.3 nM |  |  |  | PI37017 (antibody, human IgG1, kappa, V domains shown, Parent humanized clone, human IgG1; also called 37017 antibody) VH: EVQLLESGGGLVQPGGSLRLSCAASGFTFSNYYMAWVRQAPGKGLEWVSSLTNSGGSTYYADSVKGRFTISRDNSKNTLYLQMNSLRAEDTAVYYCAKEWAGSGYFDYWGQGTLVTVSS VL: DIQMTQSPSSLSASVGDRVTITCKASQNVGNNLAWYQQKPGKAPKLLIYYTSNRFTGVPSRFSGSGSGTDFTLTISSLQPEDFATYYCQRIYNSPWTFGQGTKLEIKR
4 |  | 1.55 nM | 0.000732 s⁻¹ | 471000 M⁻¹ s⁻¹ | 1.4 nM | 4.74 nM | 0.00243 s⁻¹ | 511000 M⁻¹ s⁻¹ | PI37014 (antibody, human IgG1, kappa, V domains shown, Humanized anti-TREM2 antibody, human IgG1) VH: EVQLLESGGGLVQPGGSLRLSCAASGFTFSNYYMAWVRQAPGKGLEWVASLTNSGGSTYYADSVKGRFTLSRDNSKNTLYLQMNSLRAEDTAVYYCTREWAGSGYFDYWGQGTLVTVSS VL: DIQMTQSPSSLSASVGDRVTITCKASQNVGNNLAWYQQKPGKAPKLLIYYTSNRFTGVPSRFSGSGSGTDFTLTISSLQPEDFATYYCQRIYNSPWTFGQGTKLEIKR
